Numbering of substitutions follows the chain as printed. Names and notes keep the numbering of the source.
B1: hASRGL1-C202A (enzyme, human, UniProt Q7L266 1-308, looked up)
chain: MNPIVVVHGGGAGPISKDRKERVHQGMVRAATVGYGILREGGSAVDAVEGAVVALEDDPEFNAGCGSVLNTNGEVEMDASIMDGKDLSAGAVSAVQCIANPIKLARLVMEKTPHCFLTDQGAAQFAAAMGVPEIPGEKLVTERNKKRLEKEKHEKGAQKTDCQKNLGTVGAVALDCKGNVAYATSTGGIVNKMVGRVGDSPALGAGGYADNDIGAVSTTGHGESILKVNLARLTLFHIEQGKTVEEAADLSLGYMKSRVKGLGGLIVVSKTGDWVAKWTSTSMPWAAAKDGKLHFGIDPDDTTITDLP
B2: hASRGL1-C202S (enzyme, human, UniProt Q7L266 1-308, looked up)
chain: B1 chain with A202S

Biological target: the molecule itself
Assay: SEC

Protein	stoichiometry N
B1	2
B2	2
